In US20030049702A1 (BURNHAM INSTITUTE, published 2003):

What was measured:
Test in all cases: GST pull-down of in vitro translated 35S-labeled protein, autoradiography; '-' = no interaction
[1] = molecular target: RAIDD (in vitro translated, 35S-labeled) (human, UniProt P78560 1-199)
[2] = molecular target: T1, RIP (in vitro translated, 35S-labeled) (human, UniProt Q13546 1-671, limits assumed)
T1 sequence (looked up): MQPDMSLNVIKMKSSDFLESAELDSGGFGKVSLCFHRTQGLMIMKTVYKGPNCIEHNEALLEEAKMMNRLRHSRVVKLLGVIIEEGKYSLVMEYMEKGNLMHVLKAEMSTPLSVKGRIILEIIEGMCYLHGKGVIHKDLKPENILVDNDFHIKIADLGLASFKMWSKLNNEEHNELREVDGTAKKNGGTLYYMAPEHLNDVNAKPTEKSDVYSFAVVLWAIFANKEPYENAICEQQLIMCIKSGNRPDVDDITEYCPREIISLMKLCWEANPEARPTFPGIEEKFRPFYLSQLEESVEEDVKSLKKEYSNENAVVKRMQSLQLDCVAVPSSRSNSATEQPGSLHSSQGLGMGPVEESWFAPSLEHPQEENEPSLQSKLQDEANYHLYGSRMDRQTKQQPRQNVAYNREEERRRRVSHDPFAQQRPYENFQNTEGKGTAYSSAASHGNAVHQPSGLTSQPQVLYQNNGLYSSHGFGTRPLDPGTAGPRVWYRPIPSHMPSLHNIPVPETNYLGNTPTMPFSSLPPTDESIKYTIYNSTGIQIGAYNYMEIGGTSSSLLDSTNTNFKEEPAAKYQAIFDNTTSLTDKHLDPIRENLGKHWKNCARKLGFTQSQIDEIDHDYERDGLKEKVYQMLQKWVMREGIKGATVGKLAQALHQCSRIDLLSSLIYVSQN

[3] = molecular target: Dr-4 (in vitro translated, 35S-labeled) (human, UniProt O00220 1-468, limits assumed)
[4] = molecular target: c-Flip (in vitro translated, 35S-labeled) (human, UniProt O15519 1-480)
[5] = molecular target: T2, Fas (in vitro translated, 35S-labeled) (human, UniProt P25445 1-335, limits assumed)
T2 construct: also called Fas [CD95]
T2 sequence (looked up): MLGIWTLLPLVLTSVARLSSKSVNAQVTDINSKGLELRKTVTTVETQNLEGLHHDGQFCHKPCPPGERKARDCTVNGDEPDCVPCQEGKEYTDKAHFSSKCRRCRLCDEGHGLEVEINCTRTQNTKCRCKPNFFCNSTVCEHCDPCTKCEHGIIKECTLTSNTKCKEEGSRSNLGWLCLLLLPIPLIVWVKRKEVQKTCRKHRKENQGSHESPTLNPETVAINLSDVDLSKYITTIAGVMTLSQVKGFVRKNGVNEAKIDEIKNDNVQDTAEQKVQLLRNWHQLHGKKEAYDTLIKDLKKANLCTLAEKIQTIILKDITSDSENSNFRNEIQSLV

[6] = molecular target: T3, TNF-RI (in vitro translated, 35S-labeled) (human, UniProt P19438 1-455, limits assumed)
T3 construct: also called TNFR1
T3 sequence (looked up): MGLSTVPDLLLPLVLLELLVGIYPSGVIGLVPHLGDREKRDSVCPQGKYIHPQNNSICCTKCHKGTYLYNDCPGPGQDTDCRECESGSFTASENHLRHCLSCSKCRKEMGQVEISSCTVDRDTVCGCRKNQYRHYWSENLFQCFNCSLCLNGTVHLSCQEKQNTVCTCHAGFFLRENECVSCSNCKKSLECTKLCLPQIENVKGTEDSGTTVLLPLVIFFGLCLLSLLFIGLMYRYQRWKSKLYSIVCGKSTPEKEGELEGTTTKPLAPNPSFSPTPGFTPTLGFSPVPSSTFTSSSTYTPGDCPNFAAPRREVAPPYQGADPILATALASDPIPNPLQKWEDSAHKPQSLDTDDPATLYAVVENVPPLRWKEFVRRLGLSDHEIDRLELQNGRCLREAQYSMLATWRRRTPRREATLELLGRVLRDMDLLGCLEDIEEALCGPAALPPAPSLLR

[7] = molecular target: Dr-5 (in vitro translated, 35S-labeled) (human, UniProt O14763 1-440, limits assumed)
[8] = molecular target: T4, FADD (in vitro translated, 35S-labeled) (human, UniProt Q13158 1-208)
T4 sequence (looked up): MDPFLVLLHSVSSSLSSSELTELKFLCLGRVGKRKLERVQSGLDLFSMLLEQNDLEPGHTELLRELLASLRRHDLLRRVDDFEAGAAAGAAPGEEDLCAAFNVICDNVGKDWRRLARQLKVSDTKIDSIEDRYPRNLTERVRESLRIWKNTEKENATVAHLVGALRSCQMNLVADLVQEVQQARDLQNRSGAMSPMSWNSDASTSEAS

Measured: binding result

RAIDD (in vitro translated, 35S-labeled), sequence (P78560 whole entry): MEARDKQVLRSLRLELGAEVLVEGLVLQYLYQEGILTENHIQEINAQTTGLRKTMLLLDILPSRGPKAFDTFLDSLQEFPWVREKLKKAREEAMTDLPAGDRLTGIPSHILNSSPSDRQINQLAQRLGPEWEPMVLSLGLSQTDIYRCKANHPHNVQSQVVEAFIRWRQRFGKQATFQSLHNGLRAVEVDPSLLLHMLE
c-Flip (in vitro translated, 35S-labeled), sequence (O15519 whole entry): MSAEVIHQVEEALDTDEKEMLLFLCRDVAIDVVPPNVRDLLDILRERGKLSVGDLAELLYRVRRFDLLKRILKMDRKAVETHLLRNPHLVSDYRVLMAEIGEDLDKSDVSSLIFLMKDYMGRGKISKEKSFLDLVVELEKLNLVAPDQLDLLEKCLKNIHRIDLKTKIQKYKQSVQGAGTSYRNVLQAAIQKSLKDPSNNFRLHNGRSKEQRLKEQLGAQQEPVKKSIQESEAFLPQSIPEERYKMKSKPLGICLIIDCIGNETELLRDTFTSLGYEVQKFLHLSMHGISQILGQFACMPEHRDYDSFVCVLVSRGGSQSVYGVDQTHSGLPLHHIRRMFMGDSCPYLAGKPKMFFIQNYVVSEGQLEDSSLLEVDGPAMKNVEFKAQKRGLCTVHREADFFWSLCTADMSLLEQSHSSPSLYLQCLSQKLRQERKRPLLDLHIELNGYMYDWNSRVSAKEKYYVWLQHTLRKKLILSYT

B1: GST-CD40 (cytosolic domain) (other, UniProt P25942 216-277, looked up)
chain: KKVAKKPTNKAPHPKQEPQEINFPDDLPGSNTAAPVQETLHGCQPVTQEDGKESRISVQERQ
notes: domain: cytosolic domain; Control fusion protein; not shown: glutathione S-transferase
no binding: all assays above
